The supplement of paper PMC9170038

System: MS2 coat protein
Assay: apparent KD of MS2 coat protein; designed switch direction (-1 OFF switch, 1 ON switch): -1; higher = weaker reporter binding
Procedure, shortened: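 The apparent KD reported per design is the median over clusters of curve fits to normalised cluster fluorescence. The RNA switches were transcribed on Illumina chips by stalled E. coli RNA polymerase. SNAP-549-labelled MS2 coat protein was titrated from 0.7 or 1.5 nM, doubling up to 3 µM, in Tris-HCl pH 7.5 buffer containing KCl, MgCl2, BSA, DTT, tRNA and Tween-20, with no input, 200 uM small-molecule ligand, or an oligonucleotide input.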

[1] = input ligand: microRNA oligo, concentration not stated
[2] = Eterna round: R95, input ligand: FMN 200 uM
[3] = Eterna round: R95, input ligand: microRNA oligo, concentration not stated
[4] = Eterna round: R95, input ligand: none

Row | Sequence | apparent KD of MS2 coat protein (input ligand: FMN 200 uM) | apparent KD of MS2 coat protein [1] | apparent KD of MS2 coat protein (input ligand: none) | apparent KD of MS2 coat protein [2] | apparent KD of MS2 coat protein [3] | apparent KD of MS2 coat protein [4]
1 | GCUUGUGGGCAAGGAUAUCCUACGUUGUUCUGGUUCGUGUCUGUCACAUGAGGAUCACCCAUGUGGGAGAAGGUGCAUUUGGGU [Design 59] (Eterna round: R96, puzzle: Exclusion NG 2) | 17.9 nM | 13.8 nM | 18 nM | – | – | –
2 | CAUUGUUAUCGAGGAUAUCGUAUUGAGAUUCUACGAGAAGGCGGACUAAACAUGAGGAUCACCCAUGUGGGACGGAUGCUUGGG [Ex NG1 #31] (Eterna round: R96, puzzle: Exclusion NG 1) | 30.7 nM | 25.8 nM | 28.1 nM | – | – | –
3 | ACCUCACAUGAGGAUCACCCAUGUCAGGAUAUGUACCCGAUCAAGUCAGAGAUCGGAAGCAGAAGGGACUGCGG [Bemabebe] (puzzle: Exclusion 1) | – | – | – | 26.5 nM | 99.3 nM | 86.5 nM
4 | UAUUAAACAAGCAGAUCCCACAUGAGGAUCACCCAUGUGCUCGUCUUAUAAGGUACUGUGACGAAAGUCACGGUACC [Sensor 3, v1 - 91 v11] (Eterna round: R97, puzzle: Sensor, turn-off variant 1) | 56.7 nM | – | 62.1 nM | – | – | –
5 | GCACGGAGUGUAGGAUAUCUGUGCGAUUAGCUCAGAGAAGGACACAUGAGGAUCACCCAUGUGUUCCACGGAAACGAACCGUGC [Eli exng1 - 052] (Eterna round: R96, puzzle: Exclusion NG 1) | 11.8 nM | 10.2 nM | 13.4 nM | – | – | –
6 | UUACUCGCAGGAUAUACGGGACAUACACAUCAAACUACACGACAUGAGGAUCACCCAUGUAGAAGGGCGUUACA [Blue and Green] (Eterna round: R97, puzzle: Exclusion 2) | 73.5 nM | – | 51.2 nM | – | – | –
7 | CCGCUGUCAGGAUAUCGUGCAUACAACGAAAGUUCUAUGUGCGAGAAGGGACAUGAGGAUCACCCAUGUUUGCG [Omei Ex4 A20] (Eterna round: R97, puzzle: Exclusion 4) | 41.3 nM | – | 28.2 nM | – | – | –
8 | GUGUAGUGAGGAUAUACAUGAGGAUCACCCAUGUGAAUAAGAUAGAAUAAGAUAAAGUGUAGAAGGUAUAGUGU [Excluse me!!! 17 - Jieux - Exclusion 3] (Eterna round: R96, puzzle: Exclusion 3) | 60.8 nM | 41.8 nM | 58.4 nM | – | – | –
9 | UAACUGCUCGUCUUGUUAAACAUGAGGAUCACCCAUGUCAGCCUGUAAGGGUACGGUAGAUAGGCCCGAUUGCAUGA [Eternabot (L1) Solution 11] (Eterna round: R97, puzzle: Sensor, turn-off variant 1) | 26.9 nM | – | 31.2 nM | – | – | –
10 | CGGCAUGUCUGAGGAUAUCUGCACGUGUAGUGCAGAGAAGGCAGAACAUGAGGAUCACCCAUGUAGAUCAUUAACCGAUUAAUU [ENG1/7-A3] (Eterna round: R96, puzzle: Exclusion NG 1) | 201 nM | 162 nM | 184 nM | – | – | –
11 | AACCUGAGGCUUUGCUUUAGGUGUACAUGAGGAUCACCCAUGUAGGAUAUGGUAGGCUUUGCUUACCAGAAGGACAUUAUGAUU [JL ENG3 1.18] (Eterna round: R96, puzzle: Exclusion NG 3) | 119 nM | 33.4 nM | 37.1 nM | – | – | –
12 | CGUAGCAAAGUGAGGAUAUCUAGAGCGAUAGCUCUAGAGAAGGCACAUGAGGAUCACCCAUGUGGUCAGCUACG [BmEx4/8-A4] (Eterna round: R97, puzzle: Brourd's mod of Exclusion 4) | 393 nM | – | 82.4 nM | – | – | –
13 | UGCUACGGAGGAUAUACAUGAGGAUCACCCAUGUGUGAGAUUAGGCCGAGAGGCCAAUGUAGAAGGCCGUAGCU [jl-ex3-4.21 jl mod] (Eterna round: R97, puzzle: Exclusion 3) | 339 nM | – | 282 nM | – | – | –
14 | CGGCAACAUGUCAGGAUAUAUGUACCGCUGGGUGGAUAGAAGGGACAUGAGGAUCACCCAUGUCGUCCAGCCGG [Tisove] (puzzle: Brourd's mod of Exclusion 4) | – | – | – | 19.4 nM | 12.6 nM | 13.9 nM
15 | GAGGAACAUGAGGAUCACCCAUGUGAGGAUAUGCAUAGCGAGGUAGUAGAAGUUGAAUGCAGAAGGUACACGGA [JR_Exclu1_Sub076] (puzzle: Exclusion 1) | – | – | – | – | 27.5 nM | –
16 | UUGAACAUAGGAUAUAGUUGUUUGUACAUGAGGAUCACCCAUGUUAGGGAUGUUUUGUUUCUAGAAGGAUGUUGAU [JR_E5_Sub001] (puzzle: Exclusion 5) | – | – | – | – | 128 nM | –
17 | ACAUGUCAUUGAGGAUAUUGCAAACAUGAGGAUCACCCAUGUAUACGGAUGCUCUUACGUGGGUUCGAGAAGGCGAUGUACAUU [Ex NG2 #92] (Eterna round: R96, puzzle: Exclusion NG 2) | 819 nM | 345 nM | 429 nM | – | – | –

Row | Sequence | apparent KD of MS2 coat protein (input ligand: FMN 200 uM) | apparent KD of MS2 coat protein [1] | apparent KD of MS2 coat protein (input ligand: none) | apparent KD of MS2 coat protein [2] | apparent KD of MS2 coat protein [3] | apparent KD of MS2 coat protein [4]
18 | CUGGUCCGAGGAUAUAUUAAGUGAUACAUGAGGAUCACCCAUGUUAUUUGAUGGAUGUUAAUAGAAGGCGGACUAG [JL-ex5-3.18] (puzzle: Exclusion 5) | – | – | – | 78.3 nM | 35.7 nM | 57.6 nM
19 | AGGAGACAUGAGGAUCACCCAUGUGAGGAUAUCGAUGUUACGUGGAUAACCACUUCGUUGAGAAGGCACGCUUC [Eternabot (L2) Solution 55] (Eterna round: R97, puzzle: Exclusion 1) | 43 nM | – | 38.6 nM | – | – | –
20 | GCGUGAAGGCAGGAUAUAAGAAAAGAAAGAAAAUUAGAAGGGCCGACAUGAGGAUCACCCAUGUGGGCAUGAUC [Xeorusza] (Eterna round: R97, puzzle: Exclusion 6) | 33.8 nM | – | 15.9 nM | – | – | –
21 | AAACAAGCAACGAGAUCCCACAUGAGGAUCACCCAUGUCAACUGAAGUUUUAAAUCUUCAGGCUCGUCUUAUAACAA [S_tov1_V1.1] (Eterna round: R97, puzzle: Sensor, turn-off variant 1) | 33.6 nM | – | 34.8 nM | – | – | –
22 | AUGCUCCGUGUAGGAUAUCGCCGCAUCACUCGGCGAGAAGGACAUGAGGAUCACCCAUGUAUGUUAUUAUCACGUGUGGCGCGC [Design 44] (Eterna round: R96, puzzle: Exclusion NG 1) | 52.3 nM | 16.7 nM | 25.3 nM | – | – | –
23 | UGACAGGCUAGACGAACAAACAUGAGGAUCACCCAUGUCAUUCCAUGUCUGCGUCAUAAGUAGAUGCUCGUAUAUCG [Eternabot (Original) Solution 33] (Eterna round: R97, puzzle: Sensor, turn-off variant 1) | 16.6 nM | – | 18.1 nM | – | – | –
24 | AGCUGUGGCCGAGGAUAUCAAGAACCAUGGAAAACCAUGGAACCUUGACAUGAGGAUCACCCAUGUGAGAAGGCGGUCUCAGCA [Eli eng2 - 026] (Eterna round: R96, puzzle: Exclusion NG 2) | – | 11.1 nM | – | – | – | –
25 | CUCCGGCGUGUAGGAUAUGGAUCCGAUUAGGAUCCAGAAGGACAUGAGGAUCACCCAUGUACAUGUCGGCGGUCGUCACCGGGC [salish99_ExNG1_r04_209] (Eterna round: R96, puzzle: Exclusion NG 1) | 34 nM | 14.4 nM | 20.1 nM | – | – | –
26 | CCUGUGUAAGGAUAUGCCUGGCCGUGAGGCCAGAUUGAAUAGCAGAAGGUACAUGAGGAUCACCCAUGUACGGG [jl-ex4-4.61 ViennaUCT mod] (Eterna round: R97, puzzle: Exclusion 4) | 206 nM | – | 32.9 nM | – | – | –
27 | CCAUGUCCAGAGGAUAUGUAGCGGAUAACCGCAACAGAAGGCUGGACAUGAGGAUCACCCAUGUGCGCCUUCCA [Vege] (Eterna round: R97, puzzle: Exclusion 6) | 313 nM | – | 534 nM | – | – | –
28 | CACCGUUACAGAGGAUAUCGUACAUGAGGAUCACCCAUGUAAUAAAUGAGAAUUUCGGAUGUAUGCGAGAAGGCUGGAAUCGGC [Ostracism 37 - Jieux - Exclusion NG 2] (Eterna round: R96, puzzle: Exclusion NG 2) | – | 20.7 nM | – | – | – | –
29 | UCACGGGAUUGAGGAUAUAUAUUUAUUAUUUUAAUAGAAGGCAAAGAGUUAGUUUUUUCACUAUACAUGAGGAUCACCCAUGUU [JR_ExcNG1_Sub086] (Eterna round: R96, puzzle: Exclusion NG 1) | – | 23.2 nM | – | – | – | –
30 | GUGGAACAAGGAUAUCUAACCUCGGACAUGAGGAUCACCCAUGUAUGUCUCAAGAGACCUAGAGAAGGUGUUCGUG [Eternabot (L1) Solution 32] (Eterna round: R97, puzzle: Exclusion 5) | 50.8 nM | – | 30.7 nM | – | – | –
31 | AUGCGACAUGAGGAUCACCCAUGUGAGGAUAUGCGAAUGCAUACUUCGGUGUGAUAGAGCAGAAGGCGCAGGUA [EX1 #16] (Eterna round: R97, puzzle: Exclusion 1) | 560 nM | – | 831 nM | – | – | –
32 | UAAAUGUGAGGAUAUUCGAUUUACUCGGAGACGAGUAGAUCGGAGAAGGCACAUGAGGAUCACCCAUGUUCCUU [Mat - Exclusion 4 - JL Mod - D10] (Eterna round: R97, puzzle: Exclusion 4) | 234 nM | – | 23.2 nM | – | – | –
33 | UUGUUCUGAGGAUAUACAUGAGGAUCACCCAUGUGUUUCUGCUUGGAGACUAGCGAAUGUAGAAGGCUGUUCUC [salish99_ex3_r4_021] (Eterna round: R97, puzzle: Exclusion 3) | 15.2 nM | – | 14.2 nM | – | – | –
34 | GAUAGGACGUGGUCAGGUAACAUGAGGAUCACCCAUGUAGGUCUAGGAACAAGCUUUUUGAAAGCUCGUCUUAUAAA [JR_SV3TOV1_Sub056] (puzzle: Sensor v3, turn-off variant 1) | – | – | – | 17.4 nM | 18.9 nM | 21.2 nM
